This data set deals with the molecule itself. In words: self-assembly into a homododecamer; gel filtration and negative stain electron microscopy. Background: In gel filtration, larger molecules generally elute earlier.

B1: MjTET (TET aminopeptidase of Methanocaldococcus jannaschii, product of gene MJ0555) (enzyme)
chain: MSVVEYLKKLSKLHGISGREDSVREFMKKELEKYCDSVEIDNFGNLIAKRGNKGKKIMIAAHMDEIGLMVKYIDDNGFLKFTKIGGIYDPTILNQKVVVHGSKGDLIGVLGSKPPHRMKEEEKTKIIKYEDMFIDIGAESREEAIEMGVNIGTWVSFLSEVYDLGKNRLTGKAFDDRVGCAVLLEVMKRLSEEDIDCQVYAVGTVQEEVGLKGARVSAFKINPDVAIALDVTIAGDHPGIKKEDAPVDLGKGPVVGIVDASGRGLIAHPKVLDMIKAVSEKYKIDVQWEVGEGGTTDATAIHLTREGIPTGVISVPARYIHTPVEVIDKRDLEKTVELVYNCIKEVNNFF
notes: Untagged recombinant form made in E. coli; It forms a tetrahedral homododecamer; Activity assays were run with 0.1 mM CoCl2; also called MJ0555 protein; TET protein
For B1, the binding result is “binds”.
